Paper PMC2856910

Biological target: β-cat bound to cadherin (in vitro binding studies, unpublished data) (UniProt Q02248)
Sequence of UniProt Q02248 (Q02248 whole entry, chain 1 of 2): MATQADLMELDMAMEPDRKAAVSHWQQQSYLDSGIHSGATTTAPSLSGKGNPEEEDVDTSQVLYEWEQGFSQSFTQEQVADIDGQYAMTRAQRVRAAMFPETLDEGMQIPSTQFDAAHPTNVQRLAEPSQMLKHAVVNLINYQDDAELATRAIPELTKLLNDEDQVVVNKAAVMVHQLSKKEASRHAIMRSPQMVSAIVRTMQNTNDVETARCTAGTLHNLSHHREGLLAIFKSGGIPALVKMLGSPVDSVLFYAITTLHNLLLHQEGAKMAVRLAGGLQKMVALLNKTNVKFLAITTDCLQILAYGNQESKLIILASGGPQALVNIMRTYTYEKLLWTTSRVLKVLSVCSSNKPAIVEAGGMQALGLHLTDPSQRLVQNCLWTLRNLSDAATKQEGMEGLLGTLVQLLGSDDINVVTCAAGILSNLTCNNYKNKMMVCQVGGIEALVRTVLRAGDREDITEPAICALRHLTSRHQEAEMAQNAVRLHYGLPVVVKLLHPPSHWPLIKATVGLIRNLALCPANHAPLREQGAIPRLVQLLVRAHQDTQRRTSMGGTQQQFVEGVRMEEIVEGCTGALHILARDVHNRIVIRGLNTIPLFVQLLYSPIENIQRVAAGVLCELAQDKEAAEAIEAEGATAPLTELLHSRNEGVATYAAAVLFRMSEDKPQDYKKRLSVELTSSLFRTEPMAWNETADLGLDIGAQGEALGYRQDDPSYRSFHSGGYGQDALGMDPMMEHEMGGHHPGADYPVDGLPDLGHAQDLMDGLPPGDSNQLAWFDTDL
Sequence of UniProt Q02248 (P09803 24-884, chain 2 of 2, further chain): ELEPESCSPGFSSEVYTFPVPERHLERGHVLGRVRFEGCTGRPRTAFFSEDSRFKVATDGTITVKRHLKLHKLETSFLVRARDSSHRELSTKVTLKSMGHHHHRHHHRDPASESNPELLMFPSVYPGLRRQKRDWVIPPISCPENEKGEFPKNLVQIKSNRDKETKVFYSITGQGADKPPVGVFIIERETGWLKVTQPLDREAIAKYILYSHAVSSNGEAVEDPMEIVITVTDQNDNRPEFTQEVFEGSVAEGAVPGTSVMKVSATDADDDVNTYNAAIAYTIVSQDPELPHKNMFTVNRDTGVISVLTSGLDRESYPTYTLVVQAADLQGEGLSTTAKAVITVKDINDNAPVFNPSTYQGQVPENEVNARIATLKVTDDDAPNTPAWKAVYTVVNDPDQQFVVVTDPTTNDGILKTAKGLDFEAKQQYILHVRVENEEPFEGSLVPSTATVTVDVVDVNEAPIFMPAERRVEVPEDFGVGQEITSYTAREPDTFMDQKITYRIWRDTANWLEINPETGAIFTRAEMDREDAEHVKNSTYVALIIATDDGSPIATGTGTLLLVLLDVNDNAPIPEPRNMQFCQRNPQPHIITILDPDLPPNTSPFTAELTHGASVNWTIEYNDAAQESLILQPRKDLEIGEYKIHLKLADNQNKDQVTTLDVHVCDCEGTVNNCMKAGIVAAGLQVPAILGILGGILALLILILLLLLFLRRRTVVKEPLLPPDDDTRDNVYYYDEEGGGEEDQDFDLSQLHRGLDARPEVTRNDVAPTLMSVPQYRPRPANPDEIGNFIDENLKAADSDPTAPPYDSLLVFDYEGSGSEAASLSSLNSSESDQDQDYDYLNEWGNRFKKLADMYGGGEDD

α-catenin (in vitro binding studies, unpublished data) (from UniProt P26231 1-906) (natural protein)
fold enhancement of binding against β-cat alone: > 10 fold
